These results are taken from publication PMC2898518.

Positions count from the first letter of the chain named.

The target of data set [1] is T1, p53 wild-type (UniProt P04637 1-393). Briefly: filter binding.
Data set [2] has as its target T1, p53 wild-type. Description: EMSA.

T1 sequence (P04637 whole entry): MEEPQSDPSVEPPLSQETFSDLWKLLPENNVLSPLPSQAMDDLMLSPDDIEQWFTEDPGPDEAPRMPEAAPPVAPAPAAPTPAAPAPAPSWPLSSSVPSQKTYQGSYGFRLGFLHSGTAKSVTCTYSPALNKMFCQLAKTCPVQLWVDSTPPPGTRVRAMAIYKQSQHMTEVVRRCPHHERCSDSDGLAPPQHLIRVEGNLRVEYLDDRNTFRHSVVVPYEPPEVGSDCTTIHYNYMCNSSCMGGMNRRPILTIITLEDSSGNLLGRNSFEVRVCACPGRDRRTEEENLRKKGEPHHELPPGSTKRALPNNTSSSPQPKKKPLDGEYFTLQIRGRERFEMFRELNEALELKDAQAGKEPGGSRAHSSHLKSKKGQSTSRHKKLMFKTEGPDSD

B1: p21 site 32-mer (dsDNA)
DNA 1: TAGAGCGAACATGTCCCAACATGTTGGCGTCG
DNA 2: CGACGCCAACATGTTGGGACATGTTCGCTCTA
On to B1, for which the binding signal in the data set with p53 wild-type [1] is 1 fold (reference).

B2: 66-bp circular wild-type GADD45 (dsDNA)
DNA 1: AGCTGATATCGAATTCTCGAGCAGAACATGTCTAAGCATGCTGGGCTCGAGAATTCCTGCAGCGCT
DNA 2: AGCGCTGCAGGAATTCTCGAGCCCAGCATGCTTAGACATGTTCTGCTCGAGAATTCGATATCAGCT
As to B2, in the data set with p53 wild-type [2], the binding signal was 1 fold (reference).

B3: 66-bp circular mutant GADD45 (dsDNA)
DNA 1: B2 DNA 1 with C27A, G30T, C37A, G40T
DNA 2: B2 DNA 2 with C27A, G30T, C37A, G40T
For the molecule B3, the binding signal in the data set with p53 wild-type [2] is 1 fold (reference).
